Measured values as given in PMC3061437.

Target: eukaryotic elongation factor-1 A1 (eEF1A1), purified (UniProt P68104)
Chain of UniProt P68104 (P68104 whole entry): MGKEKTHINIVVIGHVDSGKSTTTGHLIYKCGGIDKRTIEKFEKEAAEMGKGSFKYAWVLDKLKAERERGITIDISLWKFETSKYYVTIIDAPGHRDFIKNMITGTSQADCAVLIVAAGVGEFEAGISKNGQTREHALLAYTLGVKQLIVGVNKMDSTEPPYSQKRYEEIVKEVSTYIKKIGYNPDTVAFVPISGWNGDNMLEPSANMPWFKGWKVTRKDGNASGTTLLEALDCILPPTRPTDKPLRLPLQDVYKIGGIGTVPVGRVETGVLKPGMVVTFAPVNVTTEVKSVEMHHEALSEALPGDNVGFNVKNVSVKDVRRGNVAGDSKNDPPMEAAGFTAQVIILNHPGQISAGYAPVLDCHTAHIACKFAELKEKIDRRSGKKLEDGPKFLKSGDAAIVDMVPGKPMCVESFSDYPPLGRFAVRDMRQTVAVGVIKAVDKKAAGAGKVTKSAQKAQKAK

repression of translation of Luc-BAT in an IVT assay	Substance
> 80%	recombinant full-length (FL) hnRNP E1 expressed as a GST-fusion product (from UniProt Q15365 1-356) (natural protein)
70%	hnRNP E1 KH1 domain expressed as GST-fusion product (domain or fragment)
